Laboratory results: patent US20230381310A1

Target: human FcγRIIb (CD32B) (human) (UniProt P31994)
Assay: cell-based or functional assay

Sequence of UniProt P31994 (P31994 43-310): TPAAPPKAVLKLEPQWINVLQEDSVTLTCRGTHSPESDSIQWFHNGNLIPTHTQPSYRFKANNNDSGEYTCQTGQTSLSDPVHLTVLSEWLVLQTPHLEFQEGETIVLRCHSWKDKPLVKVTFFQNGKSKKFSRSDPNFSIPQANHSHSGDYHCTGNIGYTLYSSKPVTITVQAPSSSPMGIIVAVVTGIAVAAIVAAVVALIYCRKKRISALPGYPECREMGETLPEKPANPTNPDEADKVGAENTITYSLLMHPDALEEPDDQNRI

**Q.** For rituximab F(ab')2 fragment, which surface accessible CD20 after 6 h culture (CLL cells) is on record?
**A.** 40%
